Test results from paper PMC10992437, “Engineering a norcoclaurine synthase for one-step synthesis of (S)-1-aryl-tetrahydroisoquinolines” (Bioresources and Bioprocessing, 2023).

Assays:
[1] = test system: O=Cc1ccc(-c2ccccc2)cc1; test: purified protein; type: biochemical, Thalictrum flavum; conditions: co-substrate dopamine (concentration not stated), aldehyde 0.5-50 mM, general assay: HEPES pH 7.5, 20% DMSO, 5 mM ascorbic acid
[2] = test system: O=Cc1ccccc1; test: purified protein; type: biochemical, Thalictrum flavum; conditions: co-substrate dopamine (concentration not stated), aldehyde 0.5-50 mM, general assay: HEPES pH 7.5, 20% DMSO, 5 mM ascorbic acid

| Substance | Km [1] [mM] | Km [2] [mM] |
| --- | --- | --- |
| TfNCS (norcoclaurine synthase) (Thalictrum flavum subsp. glaucum) | 15.0 ± 4.6 | 22.3 ± 6.7 |
| TfNCS (norcoclaurine synthase) (Thalictrum flavum subsp. glaucum; L68T/M97V) | 14.6 ± 5.1 | 20.1 ± 5.3 |
